What was measured:
Experiment in all cases: BLI; Octet RED96; client biotinylated and loaded on streptavidin sensors; Spy or Spy variant in solution at 0.25, 0.5, 1, 1.5 and 2 μM; 40 mM HEPES, 150 mM NaCl, pH 7.5; Kd calculated as koff/kon
Settings in all cases: both partners purified
[1] = biological target: T1, Spy wild type (Spy_(1-138)) (UniProt P77754 24-161)
T1 construct: Spy, ATP-independent periplasmic chaperone; also called WT; wt; source: E. coli BL21 (DE3), purified (Ni-NTA, cation exchange, SEC); not shown: His6, N-terminal, cleaved; SUMO, N-terminal, cleaved
T1 sequence (looked up): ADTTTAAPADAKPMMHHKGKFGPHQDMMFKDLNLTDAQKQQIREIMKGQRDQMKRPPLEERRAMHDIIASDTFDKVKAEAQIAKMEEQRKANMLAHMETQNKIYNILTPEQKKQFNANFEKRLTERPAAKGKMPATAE
In short: (§1)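 Client proteins were biotinylated with EZ-link NHS-biotin at a 1:1 molar ratio, loaded onto streptavidin sensors, and measured by biolayer interferometry on an Octet RED96. The loaded sensors were dipped into 40 mM HEPES, 150 mM NaCl, pH 7.5 holding the analyte protein at 0.25, 0.5, 1, 1.5 or 2 μM, then moved to buffer without it. Fitting the wavelength-shift association and dissociation curves in SigmaPlot 12.0 gave the observed association rate and koff, kon was taken from the observed rate plotted against analyte concentration, and Kd was calculated as koff/kon.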

Spy_(27-124) = biological target: T2, Spy_(27-124) (UniProt P77754 50-147)
T2 construct: source: E. coli BL21 (DE3), purified (Ni-NTA, cation exchange, SEC); not shown: His6, N-terminal, cleaved; SUMO, N-terminal, cleaved
T2 sequence (looked up): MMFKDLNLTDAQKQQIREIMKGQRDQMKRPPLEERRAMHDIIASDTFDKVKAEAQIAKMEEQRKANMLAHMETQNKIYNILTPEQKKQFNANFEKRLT
In short: as §1

Spy_(29-127) = biological target: T3, Spy_(29-127) (UniProt P77754 52-150)
T3 construct: Spy chaperone, residues 29-127; source: E. coli BL21 (DE3), purified (Ni-NTA, cation exchange, SEC); not shown: His6, N-terminal, cleaved; SUMO, N-terminal, cleaved
T3 sequence (looked up): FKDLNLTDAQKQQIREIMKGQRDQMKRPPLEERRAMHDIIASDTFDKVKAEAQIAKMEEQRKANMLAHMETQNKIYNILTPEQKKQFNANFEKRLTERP
In short: as §1

Spy_(1-124) = biological target: T4, Spy_(1-124) (UniProt P77754 24-147)
T4 construct: source: E. coli BL21 (DE3), purified (Ni-NTA, cation exchange, SEC); not shown: His6, N-terminal, cleaved; SUMO, N-terminal, cleaved
T4 sequence (looked up): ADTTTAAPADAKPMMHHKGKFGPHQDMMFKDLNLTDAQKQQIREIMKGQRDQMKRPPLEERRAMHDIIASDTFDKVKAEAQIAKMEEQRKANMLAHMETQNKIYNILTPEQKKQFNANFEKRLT
In short: as §1

Spy_(21-130) = biological target: T5, Spy_(21-130) (UniProt P77754 44-153)
T5 construct: Spy chaperone, residues 21-130; source: E. coli BL21 (DE3), purified (Ni-NTA, cation exchange, SEC); not shown: His6, N-terminal, cleaved; SUMO, N-terminal, cleaved
T5 sequence (looked up): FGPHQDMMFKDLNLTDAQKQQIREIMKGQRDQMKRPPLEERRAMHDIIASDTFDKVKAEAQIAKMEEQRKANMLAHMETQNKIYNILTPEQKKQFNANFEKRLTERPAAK
In short: as §1

Spy_(21-124) = biological target: T6, Spy_(21-124) (UniProt P77754 44-147)
T6 construct: source: E. coli BL21 (DE3), purified (Ni-NTA, cation exchange, SEC); not shown: His6, N-terminal, cleaved; SUMO, N-terminal, cleaved
T6 sequence (looked up): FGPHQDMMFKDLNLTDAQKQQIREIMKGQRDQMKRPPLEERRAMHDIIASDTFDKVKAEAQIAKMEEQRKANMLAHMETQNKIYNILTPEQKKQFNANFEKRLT
In short: as §1

Spy_(24-130) = biological target: T7, Spy_(24-130) (UniProt P77754 47-153)
T7 construct: Spy chaperone, residues 24-130; source: E. coli BL21 (DE3), purified (Ni-NTA, cation exchange, SEC); not shown: His6, N-terminal, cleaved; SUMO, N-terminal, cleaved
T7 sequence (looked up): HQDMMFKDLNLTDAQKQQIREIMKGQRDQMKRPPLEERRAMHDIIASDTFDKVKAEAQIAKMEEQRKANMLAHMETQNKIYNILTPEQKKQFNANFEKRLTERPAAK
In short: as §1

Spy_(27-130) = biological target: T8, Spy_(27-130) (UniProt P77754 50-153)
T8 construct: Spy chaperone, residues 27-130; source: E. coli BL21 (DE3), purified (Ni-NTA, cation exchange, SEC); not shown: His6, N-terminal, cleaved; SUMO, N-terminal, cleaved
T8 sequence (looked up): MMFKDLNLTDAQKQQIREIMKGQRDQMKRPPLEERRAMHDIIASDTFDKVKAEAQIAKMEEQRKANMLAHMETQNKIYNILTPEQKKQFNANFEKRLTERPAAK
In short: as §1

B1: Im7 H40W L53A I54A (natural protein)
chain: MELKNSISDYTEAEFVQLLKEIEKENVAATDDVLDVLLEWFVKITEHPDGTDAAYYPSDNRDDSPEGIVKEIKEWRAANGKPGFKQG
modifications: biotin (EZ-link NHS-biotin, 1:1 molar ratio of biotin to protein)
notes: Im7 (colicin E7 immunity protein) with H40W L53A I54A; Spy was made with an N-terminal His6-SUMO tag that was cleaved; also called Im7AAW; partially folded client; source: purified by a similar procedure to Spy
Kd [1]: 643 nM | Kd (Spy_(27-124)): 283 nM | Kd (Spy_(29-127)): 310 nM | Kd (Spy_(1-124)): 930 nM | Kd (Spy_(21-130)): 2490 nM | Kd (Spy_(21-124)): 1820 nM | Kd (Spy_(24-130)): 1460 nM | Kd (Spy_(27-130)): 297 nM
